Tests used:
Test in all cases: ELISA
Details in all cases: both partners purified
[1] = target: T1, recombinant full-length Pfs48/45 (Plasmodium falciparum 3D7, UniProt Q8I6T1)
Pfs48/45 D1-2 [2] = target: T2, Pfs48/45 D1-2 (Plasmodium falciparum 3D7, UniProt Q8I6T1)
Pfs48/45 D2-3 = Pfs48/45 D2-3 (Plasmodium falciparum 3D7, UniProt Q8I6T1)
[3] = target: T1, recombinant full-length Pfs48/45; remark: listed apart in the source
Pfs48/45 D1-2 [4] = target: T2, Pfs48/45 D1-2; remark: listed apart in the source

T1 sequence (Q8I6T1 28-428): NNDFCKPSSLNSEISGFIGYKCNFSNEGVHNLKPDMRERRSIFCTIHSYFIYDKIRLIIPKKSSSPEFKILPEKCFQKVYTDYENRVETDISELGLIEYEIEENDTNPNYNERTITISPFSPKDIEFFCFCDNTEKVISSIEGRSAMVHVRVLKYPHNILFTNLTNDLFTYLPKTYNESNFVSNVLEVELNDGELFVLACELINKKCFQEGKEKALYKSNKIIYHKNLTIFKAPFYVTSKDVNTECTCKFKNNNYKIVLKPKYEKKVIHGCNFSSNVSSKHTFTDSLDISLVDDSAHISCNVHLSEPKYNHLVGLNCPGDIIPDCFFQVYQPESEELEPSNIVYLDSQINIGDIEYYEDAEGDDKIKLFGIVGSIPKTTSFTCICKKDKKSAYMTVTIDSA
Chain of Pfs48/45 D2-3 (Q8I6T1 184-428): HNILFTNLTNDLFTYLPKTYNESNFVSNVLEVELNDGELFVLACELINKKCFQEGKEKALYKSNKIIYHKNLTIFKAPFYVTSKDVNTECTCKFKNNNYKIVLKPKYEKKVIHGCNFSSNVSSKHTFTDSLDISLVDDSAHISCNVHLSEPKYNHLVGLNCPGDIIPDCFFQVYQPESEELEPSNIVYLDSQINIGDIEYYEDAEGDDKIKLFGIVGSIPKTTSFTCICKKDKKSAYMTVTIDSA
T2 sequence (Q8I6T1 28-289): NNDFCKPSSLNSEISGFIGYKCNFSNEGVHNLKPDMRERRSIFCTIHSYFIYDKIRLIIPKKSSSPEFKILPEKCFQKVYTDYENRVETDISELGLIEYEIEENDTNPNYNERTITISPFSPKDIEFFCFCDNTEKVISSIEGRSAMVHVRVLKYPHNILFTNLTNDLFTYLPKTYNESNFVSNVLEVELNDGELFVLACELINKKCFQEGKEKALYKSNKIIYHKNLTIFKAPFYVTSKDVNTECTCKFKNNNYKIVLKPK

B1: RUPA-105 (antibody, V domains shown)
VH: QVQLVQSGAEVKKPGASVKVSCTASGYNFLTHDISWVRQATGQGLEWMGWMNPNTGKKGYVQKFQGRVTMDRDMSKSTGYMELRSLTSEDTAVYYCVRGVGSYYGSGGWLDPWGQGTLVIVSS
VL: QSVLTQPPSASETPGQKVTISCSGSSSNIGSDTVSWYVQVPGTAPKLLIYNDNQRPSGVPDRFSGSKSGTSASLAISGLQSEDEADYYCATWDASLKRRVFGGGTTLTVL
notes: human IgG1; source: recombinant human IgG1, 293T (Protein A purified) or GenScript
[1]
  binding result: binds
Pfs48/45 D1-2 [2]
  binding result: binds
Pfs48/45 D2-3
  binding result: binds

B2: RUPA-78 (antibody, V domains shown)
VH: EGQLLESGGDLVQPGGSLRLSCAASRFTFNTFAMTWVRQAPGKGLEWVSTISRSGSSTFYADSVKGRFTISRDNSKDTLYLQMNSLRAEDTALYSCAKFRTPRFSSSSGDALDLWGQGTMVTVSS
VL: EIVLTQSPGTLSLSPGERATLSCRASQSVSSSYFAWYQRRPGQAPRLVIDGASSRATGIPDRFSGSGSGTDFTLTISRLEPEDFAVYYCQQYGVSPGTFGQGTKLEIK
notes: as for B1
[3]
  binding result: binds
Pfs48/45 D1-2 [4]
  binding result: binds

B3: RUPA-108 (antibody, V domains shown)
VH: EVVLVESGGGLIQPGGSLRLSCAASGFTVSSSYMSWVRQAPGKGLEWVSVIYSGAGGGSIYYADSVKGRFTISRDNLKNTLYLQMNSLRVEDAAVYYCVRDSRGWGYFDDWGQGTLVTVSS
VL: EIILTQSPGTLSLSPGERATLSCRASQSIRTNYLAWYQRKPGQTPRLLIYGASSRATGIPDRFSGSGSGTDFTLTISRLEPEDFAEYFCQQYQNSPWTFGQGTIVEIK
notes: as for B1
[1]
  binding result: binds
Pfs48/45 D1-2 [2]
  binding result: binds
Pfs48/45 D2-3
  binding result: binds

B4: RUPA-36 (antibody, V domains shown)
VH: QVQLQQWGAGLLKPSETLSLTCAVEGDSLGDYYWSWIRQPPGKGLEWIGDINHSGTTNYIPSLKSRVTISVDPSRKHFSLKLNFVTAADTATYFCARRASGWYRQSRYTGWFDPWGQGTLVTVSS
VL: EIVMTQSPATLSVSPGERATLSCRASHSINSNVAWYQQKPGQAPRLLIYGASTRATGIPARFSGSGSGTEFTLTISSLQTEDFAVYYCQQYNNWPGLSFGGGTKVEIK
notes: as for B1
[3]
  binding result: binds
Pfs48/45 D1-2 [4]
  binding result: binds

B5: RUPA-143 (antibody, V domains shown)
VH: QVQLVQSGAEVKKPGASVKVSCKASASTIANFAVSWVRQAPGQGLEWMGWISVYNVKTGDVKYAPKFQGRVTLTIDTATSTASMELRSLRFDDTAVYYCARANWYDNVWQEYFYGMDVWGQGTTVTVSS
VL: DIQMTQSPLTLSASVGDRVTITCRASQSVSRFLAWYQQKPGKAPKLLMYKVSNLESGVPSRFSGSGFGTQFTLTISSLQPDDFATYYCQHYDAYPWTFGQGTKVEIK
notes: as for B1
[1]
  binding result: binds
Pfs48/45 D1-2 [2]
  binding result: binds
Pfs48/45 D2-3
  binding result: binds

B6: RUPA-90 (antibody, V domains shown)
VH: EVQLVESGGGLVQPGGSLRLSCAASGFMFSSYWMTWVRQAPGKGLEWVANIKEDGSEKYYVDSVKGRFTISRDNAENSLYLHMNSLRAADTAVYYCAREGDVFVAPSAVRKGGVYGMDVWGQGTTVTVSS
VL: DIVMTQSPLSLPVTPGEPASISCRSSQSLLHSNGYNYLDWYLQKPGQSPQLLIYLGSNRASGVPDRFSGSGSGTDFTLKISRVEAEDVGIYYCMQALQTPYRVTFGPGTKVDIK
notes: as for B1
[1]
  binding result: binds
Pfs48/45 D1-2 [2]
  binding result: binds
Pfs48/45 D2-3
  binding result: binds

B7: RUPA-87 (antibody, V domains shown)
VH: QVQVVQSGAEVRKPGASVKVSCKTSGYTFIYYYIHWVRQAPGQGLEWLGWINPNSGGTKYAQQFQGRVTVTRDTSVSTAYMELNGLTSDDTAVYYCARVVAAEGYFDYWGQGTLLTVSS
VL: DIQMTQSPSSVSASVGDRVTITCRASQGISGWLAWYQQKPGKAPKLLIYAASTLQSGVPSRFSGSGSGTDFTLTISSLQPDDFATYFCQQANSFPLTFGGGTKISLK
notes: as for B1
[1]
  binding result: binds
Pfs48/45 D1-2 [2]
  binding result: binds
Pfs48/45 D2-3
  binding result: binds

B8: RUPA-92 (antibody, V domains shown)
VH: QVQLVQSGAEVKKPGASVKVSCKASGYTFTSHDIIWVRQATGQGLEWMGWMNPNTGDKGYAQKFQGRVTMTRSMSISTAYMELRSLRSEDTAVYYCARGVGTYRGSGGWFDPWGPGTLITVSS
VL: QSALTQPRSVSGSPGQSVTISCTGTSGDVGGFNYVSWYQQHPGKTPRLMLYHVTKRPSGVPDRFSGSKSGNTASLTISGLQADDEADYYCCSYAGNYIEIFGGGTKLTVL
notes: as for B1
[1]
  binding result: binds
Pfs48/45 D1-2 [2]
  binding result: binds
Pfs48/45 D2-3
  binding result: binds

B9: RUPA-30 (antibody, V domains shown)
VH: QVQLVQSGAEVKKPGASVKVSCKASGYTFTTYFLHWVRQAPGQGLEWMGVIHPSGGSTTYAENFEGRVTMSRDTSTSTVYMELSSVRYEDTAVYYCARAGEYCRGIRCYIDGLDIWGQGTTVTVSS
VL: DIQMTQSPSSLSASVGDRVTITCRASQGIRNDLGWYQQKPGKAPKRLIYAASSLQSGVPSRFSGSGSGTEFTLTISSLQPEDFATYYCLQHNDSPWTFGQGTKVEIK
notes: as for B1
[3]
  binding result: binds
Pfs48/45 D1-2 [4]
  binding result: binds

B10: RUPA-37 (antibody, V domains shown)
VH: QEQLVQSGAELRTPGATVKVSCKAPAYTFTTYFMHWVRQAPGRGFEWLGRINPSRGSTTYADKFQGRVTMTSDTSTTTVFMEVTNLRSEDTAVYYCARAGEYCRGIRCYVDGIDMWGQGTMITVSS
VL: DIQMTQSPSSLSASIGDRVTITCRASQGIRNDLGWYQQKPGKAPQRLIYAASSLQSGVPSRFSGSGSGTEFTLTISSLQPEDFASYFCLQHNSSPWTFGQGTKVEIK
notes: as for B1
[3]
  binding result: binds
Pfs48/45 D1-2 [4]
  binding result: binds

B11: RUPA-88 (antibody, V domains shown)
VH: QVHLVQSGAEVKKPGASVKVSCKASGYNFLYHDITWVRQATGQGLEWLGWMNPNTGDTGYAQNFQGRVTMTRDMSRSTAYLELGSLRSEDTAVYYCARGVGSYHGSGGWLDPWGPGTLVIVSS
VL: QSVLTQPPSVSETPGQRVTISCSGSSSNIGLNTVNWYQQLPGTAPKLLIHNDNQRPSGVPDRFSGSKSGTSASLAISGLHSEDEADYYCATWDDSLKRRVFGGGTKLTVL
notes: as for B1
[1]
  binding result: binds
Pfs48/45 D1-2 [2]
  binding result: binds
Pfs48/45 D2-3
  binding result: binds

B12: RUPA-113 (antibody, V domains shown)
VH: QVQLVQSGAELKKPGASVKVSCKASGYTFTSHDITWVRQAPGQGLEWMGWMNPNTGDRGYARNFQGRLTLTRDMSISTAFMVLSSLRPEDTAVYYCTRGVGTYHGAGGWFDPWGQGTLVSVSS
VL: QSVLTQPPSASETPGQRVTISCSGSSSNIGSNIVSWYQQLPGTAPKLLIYNNNQRPSGVPDRFSGSQSGTSASLAISGLQSEDEADYYCATWDDSLERGVFGGGTKLTVL
notes: as for B1
[1]
  binding result: binds
Pfs48/45 D1-2 [2]
  binding result: binds
Pfs48/45 D2-3
  binding result: binds

B13: RUPA-99 (antibody, V domains shown)
VH: QVHLVQSGAEVKKPGASVKVSCKASGYNFLYHDITWVRQATGQGLEWLGWMNPNTGDTGYAQNFQGRVTMTRDMSRSTAYMELDSLRSEDTAVYYCARGVGSYHGSGGWLDPWGPGTLVIVSS
VL: QSVLTQPPSVSETPGQRVTISCSGSSSNIGLNTVNWYQQLPGTAPNLLIHNDNQRPSGVPDRFSGSKSGTSASLAISGLHSEDEADYYCATWDDSLKRRVFGGGTKLTVL
notes: as for B1
[1]
  binding result: binds
Pfs48/45 D1-2 [2]
  binding result: binds
Pfs48/45 D2-3
  binding result: binds

B14: RUPA-104 (antibody, V domains shown)
VH: QVQLVQSGAEVKKPGASVKISCKTSGYTFTNYDINWVRQATGRGLEWMGWINPNTGKTGFAQKFQGRVTMTRSTSISTAYMELSSLRSEDTAVYYCARGVTTPDYFDSWGQGTLVTVSS
VL: DIQMTQSPSSVSASVGDRVSITCRASQDISGWLAWYQQKPGKAPKLLIYAASTLRTGVPSRFSGSGSGTDFTLTISSLQPEDFATYYCLQANSLPVTFGQGTRLEIT
notes: as for B1
[1]
  binding result: binds
Pfs48/45 D1-2 [2]
  binding result: binds
Pfs48/45 D2-3
  binding result: binds

B15: RUPA-46 (antibody, V domains shown)
VH: QVQLVQSGGGLVKPGGSLKLSCAASGFAFSDYYMHWIRQSPGKGLEWISYVSNSGNTIYYADSVKGRFTISRDNTKNSLFLQMNSLSADDTAVYYCARDRKGRNSETYYGALDVWGQGTTVTVST
VL: DIVMTQSLDSLAVSLGERATINCKSSQSVFSTYNNKNYLAWYQQKLGQPPKLLIYWASTRESGVPDRFSGSGSGTDFTLTISSLQAEDVAVYYCQQYYTTPTWTFGQGTKVEIK
notes: as for B1
[3]
  binding result: binds
Pfs48/45 D1-2 [4]
  binding result: binds

B16: RUPA-111 (antibody, V domains shown)
VH: EVQLVESGGGLVQPGGSLRLSCVVSGFTFSRYSMYWVRQAPGKGPEWVSYIDSTGTTIYYADSVKGRFTISRDNAKSSLSLQMSSLRDDDRGVYYCARDGRKDSGSFLDHWGQGTLVIVSS
VL: DIQMTQSPSTLSASVGDRVTITCRASQSISEWLAWYQQKPGKAPRLLIYQASSLQSGVPSRFSGSGSGTEFTLTISSLQSDDFATYYCQQFDTYWTFGQGTKVEVR
notes: as for B1
[1]
  binding result: binds
Pfs48/45 D1-2 [2]
  binding result: binds
Pfs48/45 D2-3
  binding result: binds

B17: RUPA-26 (antibody, V domains shown)
VH: QVQLQQWGAGLLKPSETLSLTCLVNGGSFSDYYWSWIRQPPGRGLEWIGDVNHSGTTNHRPSLQSRVTLSLDMSKNQFSLKLTSVTAADTAVYFCARRSSGYYRGSRYTGWFDPWGQGTLVTVSS
VL: EIVLTQSPATLSVSPGERATLSCRASQTITRNLAWYQQKPGQAPRLLIYGASTRAPDIPARFSGSGSGTEFTLTISSLQSEDFALYYCQQYNNWPGLTFGGGTKVEIK
notes: as for B1
[3]
  binding result: binds
Pfs48/45 D1-2 [4]
  binding result: binds

B18: RUPA-45 (antibody, V domains shown)
VH: QVQLQQWGAGLLKPSETLSLTCLVNGGSFSDYYWSWIRQPPGRGLEWIGDVNHSGTTNHRPSLQSRVTLSLDMSKNQFSLRLTSVTAADTAVYFCARRSSGYYRGSHYTGWFDPWGQGTLVTVSS
VL: EIVLTQSPATLSVSPGERATLSCRASQTITRNLAWYQQKPGQAPRLLIYGASTRAPDIPARFSGSGSGTEFTLTISSLQSEDFALYYCQQYNNWPGLTFGGGTKVEIK
notes: as for B1
[3]
  binding result: binds
Pfs48/45 D1-2 [4]
  binding result: binds

B19: RUPA-91 (antibody, V domains shown)
VH: QVQLVQSGAEVKKIGASVKVSCKASGYTFTSHDIIWVRQAAGQGLEWMGWMNPNTGKKGYVEKFQGRVTLTRNMSTGTAYMELSSLRSDDTAVYYCARGVGTYHGSEGWLDPWGQGTLITVSS
VL: QSVLTQPPSASETPGQRVTISCSGSSSNVGSNSVNWYQQVPGTAPKLLIYNTNQRPSGVPARFSGSKSGTSASLAISGLHSEDEADYYCATWDGSLKKGVFGGGTKVTVL
notes: as for B1
[1]
  binding result: binds
Pfs48/45 D1-2 [2]
  binding result: binds
Pfs48/45 D2-3
  binding result: binds

Reference: paper PMC9942873 (Immunity, 2023)
